The source of these data is patent US11653679B2, “High-purity steviol glycosides” (PureCircle Sdn Bhd, priority 2014, dated 2023).

This series is described as follows: Directed evolution of UGT76G1, Rebaudioside D to Rebaudioside M, round 1 (Example 26). The following applies: 100 μL fresh lysate, 0.5 mM Rebaudioside D, 30° C., pH 7.2. In kind it is biochemical. A digest of the protocol: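 Conversion and initial rate were determined by HPLC with CAD detection on samples taken at 2, 4, 7 and 24 h. Reactions ran at 30 °C in 50 mM phosphate buffer pH 7.2 with lysate, Rebaudioside D (0.5 mM), UDP-glucose (2.5 mM) and MgCl2 (3 mM).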

B1: UGT76G1var88: UGT76G1 variant, mutations A239V_T284I_V310I_Q342K_L379A (protein, UniProt Q6VAB4 1-458, looked up, variant A239V T284I V310I Q342K L379A)
UDP-glycosyltransferase 76G1: MENKTETTVRRRRRIILFPVPFQGHINPILQLANVLYSKGFSITIFHTNFNKPKTSNYPHFTFRFILDNDPQDERISNLPTHGPLAGMRIPIINEHGADELRRELELLMLASEEDEEVSCLITDALWYFAQSVADSLNLRRLVLMTSSLFNFHAHVSLPQFDELGYLDPDDKTRLEEQASGFPMLKVKDIKSAYSNWQILKEILGKMIKQTKASSGVIWNSFKELEESELETVIREIPVPSFLIPLPKHLTASSSSLLDHDRTVFQWLDQQPPSSVLYVSFGSISEVDEKDFLEIARGLVDSKQSFLWVIRPGFVKGSTWVEPLPDGFLGERGRIVKWVPQKEVLAHGAIGAFWTHSGWNSTLESVCEGVPMIFSDFGADQPLNARYMSDVLKVGVYLENGWERGEIANAIRRVMVDEEGEYIRQNARVLKQKADVSLMKGGSSYESLESLVSYISSL
Regarding B1, the “conversion Reb D to Reb M after 24 h” value stood at 1.6% and the initial rate is recorded as 3.8E+05 Reb M area/min.

B2: UGT76G1var93: UGT76G1 variant, mutations I43V_Q266E_S375M_S389E_V394I (protein, UniProt Q6VAB4 1-458, looked up, variant I43V Q266E S375M S389E V394I)
UDP-glycosyltransferase 76G1: MENKTETTVRRRRRIILFPVPFQGHINPILQLANVLYSKGFSVTIFHTNFNKPKTSNYPHFTFRFILDNDPQDERISNLPTHGPLAGMRIPIINEHGADELRRELELLMLASEEDEEVSCLITDALWYFAQSVADSLNLRRLVLMTSSLFNFHAHVSLPQFDELGYLDPDDKTRLEEQASGFPMLKVKDIKSAYSNWQILKEILGKMIKQTKASSGVIWNSFKELEESELETVIREIPAPSFLIPLPKHLTASSSSLLDHDRTVFEWLDQQPPSSVLYVSFGSTSEVDEKDFLEIARGLVDSKQSFLWVVRPGFVKGSTWVEPLPDGFLGERGRIVKWVPQQEVLAHGAIGAFWTHSGWNSTLESVCEGVPMIFMDFGLDQPLNARYMEDVLKIGVYLENGWERGEIANAIRRVMVDEEGEYIRQNARVLKQKADVSLMKGGSSYESLESLVSYISSL
For the molecule B2, the “conversion Reb D to Reb M after 24 h” value is 1.8% and the initial rate stood at 4.5E+05 Reb M area/min.

B3: UGT76G1var90: UGT76G1 variant, mutations E231A_S241I_S274G_Y397Q_Q425E (protein, UniProt Q6VAB4 1-458, looked up, variant E231A S241I S274G Y397Q Q425E)
UDP-glycosyltransferase 76G1: MENKTETTVRRRRRIILFPVPFQGHINPILQLANVLYSKGFSITIFHTNFNKPKTSNYPHFTFRFILDNDPQDERISNLPTHGPLAGMRIPIINEHGADELRRELELLMLASEEDEEVSCLITDALWYFAQSVADSLNLRRLVLMTSSLFNFHAHVSLPQFDELGYLDPDDKTRLEEQASGFPMLKVKDIKSAYSNWQILKEILGKMIKQTKASSGVIWNSFKELEESELATVIREIPAPIFLIPLPKHLTASSSSLLDHDRTVFQWLDQQPPGSVLYVSFGSTSEVDEKDFLEIARGLVDSKQSFLWVVRPGFVKGSTWVEPLPDGFLGERGRIVKWVPQQEVLAHGAIGAFWTHSGWNSTLESVCEGVPMIFSDFGLDQPLNARYMSDVLKVGVQLENGWERGEIANAIRRVMVDEEGEYIRENARVLKQKADVSLMKGGSSYESLESLVSYISSL
Consider B3, for which the initial rate is given as 1.9E+07 Reb M area/min.

B4: UGT76G1var6: UGT76G1 variant, mutations Q266S_S357N_I373L (protein, UniProt Q6VAB4 1-458, looked up, variant Q266S S357N I373L)
UDP-glycosyltransferase 76G1: MENKTETTVRRRRRIILFPVPFQGHINPILQLANVLYSKGFSITIFHTNFNKPKTSNYPHFTFRFILDNDPQDERISNLPTHGPLAGMRIPIINEHGADELRRELELLMLASEEDEEVSCLITDALWYFAQSVADSLNLRRLVLMTSSLFNFHAHVSLPQFDELGYLDPDDKTRLEEQASGFPMLKVKDIKSAYSNWQILKEILGKMIKQTKASSGVIWNSFKELEESELETVIREIPAPSFLIPLPKHLTASSSSLLDHDRTVFSWLDQQPPSSVLYVSFGSTSEVDEKDFLEIARGLVDSKQSFLWVVRPGFVKGSTWVEPLPDGFLGERGRIVKWVPQQEVLAHGAIGAFWTHNGWNSTLESVCEGVPMLFSDFGLDQPLNARYMSDVLKVGVYLENGWERGEIANAIRRVMVDEEGEYIRQNARVLKQKADVSLMKGGSSYESLESLVSYISSL
On to B4, for which the “conversion Reb D to Reb M after 24 h” value is 0.5% and the initial rate was found to be 1.8E+06 Reb M area/min.

B5: UGT76G1var96: UGT76G1 variant, mutations F22L_E229A_L243P_F377C_A385T (protein, UniProt Q6VAB4 1-458, looked up, variant F22L E229A L243P F377C A385T)
UDP-glycosyltransferase 76G1: MENKTETTVRRRRRIILFPVPLQGHINPILQLANVLYSKGFSITIFHTNFNKPKTSNYPHFTFRFILDNDPQDERISNLPTHGPLAGMRIPIINEHGADELRRELELLMLASEEDEEVSCLITDALWYFAQSVADSLNLRRLVLMTSSLFNFHAHVSLPQFDELGYLDPDDKTRLEEQASGFPMLKVKDIKSAYSNWQILKEILGKMIKQTKASSGVIWNSFKELEESALETVIREIPAPSFPIPLPKHLTASSSSLLDHDRTVFQWLDQQPPSSVLYVSFGSTSEVDEKDFLEIARGLVDSKQSFLWVVRPGFVKGSTWVEPLPDGFLGERGRIVKWVPQQEVLAHGAIGAFWTHSGWNSTLESVCEGVPMIFSDCGLDQPLNTRYMSDVLKVGVYLENGWERGEIANAIRRVMVDEEGEYIRQNARVLKQKADVSLMKGGSSYESLESLVSYISSL
Turning to B5, the “conversion Reb D to Reb M after 24 h” value came out at 1.2% and the initial rate amounted to 2.7E+05 Reb M area/min.

B6: UGT76G1var89: UGT76G1 variant, mutations F41L_E229A_E231A_F265L_P272A (protein, UniProt Q6VAB4 1-458, looked up, variant F41L E229A E231A F265L P272A)
UDP-glycosyltransferase 76G1: MENKTETTVRRRRRIILFPVPFQGHINPILQLANVLYSKGLSITIFHTNFNKPKTSNYPHFTFRFILDNDPQDERISNLPTHGPLAGMRIPIINEHGADELRRELELLMLASEEDEEVSCLITDALWYFAQSVADSLNLRRLVLMTSSLFNFHAHVSLPQFDELGYLDPDDKTRLEEQASGFPMLKVKDIKSAYSNWQILKEILGKMIKQTKASSGVIWNSFKELEESALATVIREIPAPSFLIPLPKHLTASSSSLLDHDRTVLQWLDQQAPSSVLYVSFGSTSEVDEKDFLEIARGLVDSKQSFLWVVRPGFVKGSTWVEPLPDGFLGERGRIVKWVPQQEVLAHGAIGAFWTHSGWNSTLESVCEGVPMIFSDFGLDQPLNARYMSDVLKVGVYLENGWERGEIANAIRRVMVDEEGEYIRQNARVLKQKADVSLMKGGSSYESLESLVSYISSL
Regarding B6, the “conversion Reb D to Reb M after 24 h” value is 1.2% and the initial rate is recorded as 2.1E+05 Reb M area/min.

B7: UGT76G1var95: UGT76G1 variant, mutations A33G_I295M_K303G_I335V_A385T (protein, UniProt Q6VAB4 1-458, looked up, variant A33G I295M K303G I335V A385T)
UDP-glycosyltransferase 76G1: MENKTETTVRRRRRIILFPVPFQGHINPILQLGNVLYSKGFSITIFHTNFNKPKTSNYPHFTFRFILDNDPQDERISNLPTHGPLAGMRIPIINEHGADELRRELELLMLASEEDEEVSCLITDALWYFAQSVADSLNLRRLVLMTSSLFNFHAHVSLPQFDELGYLDPDDKTRLEEQASGFPMLKVKDIKSAYSNWQILKEILGKMIKQTKASSGVIWNSFKELEESELETVIREIPAPSFLIPLPKHLTASSSSLLDHDRTVFQWLDQQPPSSVLYVSFGSTSEVDEKDFLEMARGLVDSGQSFLWVVRPGFVKGSTWVEPLPDGFLGERGRVVKWVPQQEVLAHGAIGAFWTHSGWNSTLESVCEGVPMIFSDFGLDQPLNTRYMSDVLKVGVYLENGWERGEIANAIRRVMVDEEGEYIRQNARVLKQKADVSLMKGGSSYESLESLVSYISSL
Take B7: the “conversion Reb D to Reb M after 24 h” value is reported as −1.3% and the initial rate is recorded as −1.7E+05 Reb M area/min.

B8: UGT76G1var92: UGT76G1 variant, mutations K303G_S357N_V366I_V394I_I407V (protein, UniProt Q6VAB4 1-458, looked up, variant K303G S357N V366I V394I I407V)
UDP-glycosyltransferase 76G1: MENKTETTVRRRRRIILFPVPFQGHINPILQLANVLYSKGFSITIFHTNFNKPKTSNYPHFTFRFILDNDPQDERISNLPTHGPLAGMRIPIINEHGADELRRELELLMLASEEDEEVSCLITDALWYFAQSVADSLNLRRLVLMTSSLFNFHAHVSLPQFDELGYLDPDDKTRLEEQASGFPMLKVKDIKSAYSNWQILKEILGKMIKQTKASSGVIWNSFKELEESELETVIREIPAPSFLIPLPKHLTASSSSLLDHDRTVFQWLDQQPPSSVLYVSFGSTSEVDEKDFLEIARGLVDSGQSFLWVVRPGFVKGSTWVEPLPDGFLGERGRIVKWVPQQEVLAHGAIGAFWTHNGWNSTLESICEGVPMIFSDFGLDQPLNARYMSDVLKIGVYLENGWERGEVANAIRRVMVDEEGEYIRQNARVLKQKADVSLMKGGSSYESLESLVSYISSL
For the molecule B8, the “conversion Reb D to Reb M after 24 h” value was 1.6% and the initial rate is 3.6E+05 Reb M area/min.

B9: UGT76G1var91: UGT76G1 variant, mutations E224A_L246F_T263S_F265I_Q342K (protein, UniProt Q6VAB4 1-458, looked up, variant E224A L246F T263S F265I Q342K)
UDP-glycosyltransferase 76G1: MENKTETTVRRRRRIILFPVPFQGHINPILQLANVLYSKGFSITIFHTNFNKPKTSNYPHFTFRFILDNDPQDERISNLPTHGPLAGMRIPIINEHGADELRRELELLMLASEEDEEVSCLITDALWYFAQSVADSLNLRRLVLMTSSLFNFHAHVSLPQFDELGYLDPDDKTRLEEQASGFPMLKVKDIKSAYSNWQILKEILGKMIKQTKASSGVIWNSFKALEESELETVIREIPAPSFLIPFPKHLTASSSSLLDHDRSVIQWLDQQPPSSVLYVSFGSTSEVDEKDFLEIARGLVDSKQSFLWVVRPGFVKGSTWVEPLPDGFLGERGRIVKWVPQKEVLAHGAIGAFWTHSGWNSTLESVCEGVPMIFSDFGLDQPLNARYMSDVLKVGVYLENGWERGEIANAIRRVMVDEEGEYIRQNARVLKQKADVSLMKGGSSYESLESLVSYISSL
As for B9, the “conversion Reb D to Reb M after 24 h” value was determined as 1.2% and the initial rate is on record as 2.3E+05 Reb M area/min.
